Values quoted from earlier work, collected in article PMC10766771.

Tested on: His154
Test: other (pH dependence of the redox potential, electrochemistry)
Details: oxidized [2Fe-2S] cluster, isolated fragment

## Rieske [2Fe-2S] iron-sulfur protein (cytochrome bc1-type), isolated soluble fragment (Thermus thermophilus)
  pKa: 7.8
